Measurements reported in publication PMC3232166, “Seleno-detergent MAD phasing of leukotriene C4 synthase in complex with dodecyl-β-D-selenomaltoside” (Acta Crystallographica Section F, 2011).

Molecular target: the molecule itself
Experiment: crystal structure; LTC4S with SeDDM and GSH, sitting-drop vapour diffusion at 293 K, 0.1 M MES-NaOH pH 6.5, 1.6 M ammonium sulfate, 0.4 M MgCl2; space group F23, Se MAD phasing, refined at 3.2 A

B1: Human leukotriene C4 synthase (enzyme)
chain: MKDEVALLAAVTLLGVLLQAYFSLQVISARRAFRVSPPLTTGPPEFERVYRAQVNCSEYFPLFLATLWVAGIFFHEGAAALCGLVYLFARLRYFQGYARSAQLRLAPLYASARALWLLVALAALGLLAHFLPAALRAALLGRLRTLLPWA
notes: Leukotriene C4 synthase, human; 17 kDa monomer; construct as described previously (Ago et al., 2007; Saino et al., 2011); also called LTC4S
  stoichiometry N: 3
